Source: patent publication US20130149312A1, “COMPOSITIONS AND METHODS FOR TREATING COPD EXACERBATION” (MCMASTER UNIVERSITY, priority 2010, published 2013)

Experiments:
IL-1R1 [1] = target: T1, IL-1R1 (Mus musculus, UniProt P13504); assay: Acute tobacco smoke model of lung inflammation (BAL cells); assay type: in vivo; conditions: Balb/c mice; smoke twice daily; BAL day 5; 35F5/MAB005 15 mg/kg i.p. once daily; anakinra 48 mg/kg/day s.c. by ALZET pump
T1 construct: from tissue; host or cells: living Balb/c mice (lung / systemic), read-out BAL cell counts
T1 sequence (P13504 20-576): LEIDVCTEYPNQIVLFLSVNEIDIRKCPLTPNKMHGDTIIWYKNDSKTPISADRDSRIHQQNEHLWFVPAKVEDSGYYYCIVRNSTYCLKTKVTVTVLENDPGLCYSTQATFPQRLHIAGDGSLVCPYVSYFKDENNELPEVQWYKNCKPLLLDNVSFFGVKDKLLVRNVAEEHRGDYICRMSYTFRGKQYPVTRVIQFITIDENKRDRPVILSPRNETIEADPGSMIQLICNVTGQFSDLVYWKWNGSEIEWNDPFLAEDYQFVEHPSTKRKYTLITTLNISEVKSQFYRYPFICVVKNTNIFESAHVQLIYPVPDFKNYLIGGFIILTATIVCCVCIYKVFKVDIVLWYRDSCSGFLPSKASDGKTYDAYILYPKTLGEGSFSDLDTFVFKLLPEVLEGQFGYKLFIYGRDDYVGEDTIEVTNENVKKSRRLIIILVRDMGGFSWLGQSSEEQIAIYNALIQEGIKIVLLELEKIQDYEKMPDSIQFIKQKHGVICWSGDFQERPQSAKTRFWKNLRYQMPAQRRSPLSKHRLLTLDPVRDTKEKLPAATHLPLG
Excerpt: The antibody 35F5 is a monoclonal antibody which binds to mouse IL-1R1 and prevents the binding of both IL-1beta and IL-1alpha to the receptor IL-1R1Anakinra antagonises the effects of both IL-1beta and IL-1alpha. […] The data shown in this example confirms that inhibition of IL-1R1 by 35F5 decreases inflammation in an acute model of murine lung inflammation, induced by a stimulus relevant to COPD such as smoke. This is consistent with previous observations in the public domain, and with other studies using IL-1Ra (anakinra; IL-1 receptor antagonist). In this mouse model, cigarette smoke causes significant increases in neutrophil BAL cell numbers after 4 days of smoke inhalation. To investigate the effects of IL-1R1 pathway inhibition on the acute inflammatory response to cigarette smoke inhalation, Balb/c mice were exposed to cigarette smoke twice daily (for 50 minutes) […] and dosed intraperitoneally once daily with either 35F5, isotype control rat IgG1 (MAB005), or saline, starting 48 hours before the first smoke exposure and continuing for 4 days. On Day 5, animals were terminated and BAL was performed. An additional treatment arm was included in which animals were exposed to cigarette smoke as above but dosed sub-cutaneously (SC) continuously with anakinra using infusion pumps (ALZET) starting dosing 48 hours prior to the first smoke exposure. […]

IL-1R [2] = target: T2, IL-1R (Homo sapiens, UniProt P14778); assay: Smoke plus HRV virus induced IL-8 release in BEAS-2B cells; assay type: cell-based; conditions: 20% smoked medium then HRV, different anakinra concentrations
T2 sequence (P14778 18-569): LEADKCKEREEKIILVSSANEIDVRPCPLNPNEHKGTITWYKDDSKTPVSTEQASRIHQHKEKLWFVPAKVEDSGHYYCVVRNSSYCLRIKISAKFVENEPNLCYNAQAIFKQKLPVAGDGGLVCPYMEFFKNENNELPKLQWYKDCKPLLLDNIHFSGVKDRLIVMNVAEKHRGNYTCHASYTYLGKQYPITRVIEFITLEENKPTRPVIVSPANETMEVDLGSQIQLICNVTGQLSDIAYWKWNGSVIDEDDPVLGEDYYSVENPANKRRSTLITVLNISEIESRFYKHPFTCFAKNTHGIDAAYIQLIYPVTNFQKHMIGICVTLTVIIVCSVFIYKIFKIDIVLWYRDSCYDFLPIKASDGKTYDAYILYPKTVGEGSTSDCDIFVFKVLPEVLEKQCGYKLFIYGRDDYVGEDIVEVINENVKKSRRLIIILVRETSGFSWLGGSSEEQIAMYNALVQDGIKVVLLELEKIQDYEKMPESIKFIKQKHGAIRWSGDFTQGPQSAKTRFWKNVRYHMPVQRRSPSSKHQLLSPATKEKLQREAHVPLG
Experimental: (§1) The inflammatory response of epithelial cell in vitro was measured in response to smoke conditioned medium, or smoke conditioned medium and virus. The smoke conditioned medium was generated by bubbling cigarette smoke through tissue culture (TC) medium, and is referred to later in this example as ‘smoke’ or ‘smoke treatment’ of the cells. One cigarette with the filter removed bubbled through 25 mL medium is equal to 100% smoked medium. Cigarette smoke treated medium was titrated for IL-8 release and cell confluence on BEAS-2b cells. 20% smoked medium was used for all experiments as it induced pro-inflammatory cytokine release without significant cell death.
(§2) To examine the role of IL-1R in smoke and virus induced inflammation, cells were first smoke treated with a pre-treatment of IL-1R antagonist, and then as required, infected with HRV virus with another pre-treatment of IL-1R antagonist, anakinra. (FIGS. 10A and 10C).
(§3) A lit cigarette (no filter) was connected by tubing to a falcon tube (50 ml capacity) containing tissue culture medium which was supported in a glass flask. A peristaltic pump drew the smoke through the tubing and into the tissue culture medium. The waste smoke was drawn into a beaker of detergent. The whole procedure was performed within a fume cupboard to protect the operator and other users of the lab. The procedure was therefore not sterile. […]

IL-1R [3] = target: T2, IL-1R; assay: Smoke conditioned medium induced IL-8 release in BEAS-2B cells; assay type: cell-based; conditions: 20% smoked medium, 24 hours
Experimental: as §1, §2, §3

IL-1R1 [4] = target: T1, IL-1R1; assay: IL-1beta-induced neutrophil mediated inflammation in the mouse lung (BAL); assay type: in vivo; conditions: Balb/c mice; anakinra subcutaneously 1 hour before IL-1beta 5 ng/50 μl intratracheally; BAL after 4 hours; vs control IL-1 treated animals
Experimental: As noted above, the effect of IL-1R1 antagonist treatment on an IL-1beta-induced neutrophil mediated inflammation in the mouse lung was also examined (FIG. 1B). Anakinra (KINERET™) was dosed subcutaneously one hour before a treatment of IL-1beta of 5 ng/50 μl. After four hours, cell counts were obtained by BAL. Anakinra reduced the cell count by 71% compared to control IL-1 treated animals.
Mice were adult Balb/c females. Anakinra was dosed subcutaneously one hour before IL-1beta was administered intratracheally to the mouse lung using a dose of 5 ng in 50 ul. After 4 hours, the lungs of the mouse were lavaged, essentially as for the acute smoke model (example 2), and total cells and differential cell counts performed.

IL-1R1 [5] = target: T1, IL-1R1; assay: Inhaled LPS model of acute lung inflammation (BAL cells); assay type: in vivo; conditions: Balb/c mice; anakinra by ALZET osmotic pump from 48 hours before inhaled LPS; BAL 48 hours after challenge; vs control LPS treated mice; P<0.001
Excerpt: Lipopolysaccharide (LPS) is a component of bacterial cell walls of gram negative bacteria. […] The effect of an IL-1R1 antagonist, anakinra, was examined in a mouse model of LPS mediated inflammatory cell influx into the lung. Anakinra inhibited LPS mediated inflammatory cell influx as measured by BAL total cells into the lung by 47% compared to control LPS treated mice (P<0.001) (FIG. 7).
Anakinra was delivered using an ALZET osmotic pump as described for acute smoke model, and was also administered to the mice 48 hours before the LPS administration. Mice were adult female Balb/c mice.
The mice were placed in a semi-open exposure inhalation box (max 10 mice) and were exposed once to aerosolised LPS—total inhalation session time 12 minutes. P. aeriginosa LPS was used at a concentration of 5 mg/ml and was aerosolised using a nebuliser (such as a PariStar Jet Star nebuliser), filled with 5 ml volume and flow from the nebuliser was 5 l/min (Pressure=2 bar). The control groups received the same procedure but with PBS. […] The BAL was then centrifuged—the cell pellet was analysed using standard automated cell counting and differential cell counting. […] The significance of differences between groups was calculated using Student's T test with one-tailed distribution and two-sample unequal variance. […]

IL-1R1 [6] = target: T3, IL-1R1 (Homo sapiens, UniProt P14778); assay: HRV14-induced IL-8 release in BEAS-2b/H292 epithelial cells; conditions: BEAS-2b/H292 cells; PEG purified HRV14; anakinra 25 nM (FIG. 8B)
T3 sequence (P14778 18-569): T2 sequence (P14778 18-569)
Experimental: To investigate the role of IL-1 in human rhinovirus (HRV)-mediated inflammatory response, PEG purified HRV14 was used to infect BEAS-2b/H292 cells (human cells available from the ATCC) while those cells were being exposed to an IL-1R antagonist (FIG. 8A). […] A prototypic inflammatory mediator IL-8 (CXCL-1) was examined after treatment and HRV14 infection of the cells (FIG. 8). […] The concentration of anakinra used on the cells was 25 nM.
Cells used for epithelial smoke and virus work were BEAS-2B cells obtained from ATCC (catalogue number CRL-9609) and grown as per suppliers instructions, or H292s from ECACC (catalogue no 91091815 NCI-H292) also grown according to suppliers instructions. […]
Cells were seeded onto collagen coated flat clear bottomed plates and were incubated at 37° C. […] Anakinra or media was replaced onto cells in 100 ul and the virus was added 30 minutes later at a dilution determined by titres of virus stock on HeLa OHIO cells to determine equivalent activity for each batch made in an additional 100 ul . […]
IL-8 was measured in supernatants using ELISA kit (R&D Systems Duoset DY208) according to manufacturer's instructions and using R&D recombinant protein as standards for the assays.

anakinra was tested, and the “tobacco smoke-induced acute inflammatory cell infiltration in BAL” value (IL-1R1 [1]) was “significantly inhibited”, the “combined smoke and virus IL-8 response” value (IL-1R [2]) was “Concentration dependent and complete inhibition” and the “smoke-induced IL-8 response” value (IL-1R [3]) was “dose dependent effect”. The “smoke-induced IL-8 response” value (IL-1R [3]; listed as Anakinra) was “partial inhibition”, the “inhibition of IL-1beta-induced increase of neutrophils / cell count in BAL” value (IL-1R1 [4]) was 71% and the “inhibition of LPS mediated inflammatory cell influx (BAL total cells)” value (IL-1R1 [5]) was 47%. The “IL-8 levels after HRV14 infection” value (IL-1R1 [6]) was “reduced”.
